Experimental data: PMC9768450

Tests used:
Assay in all cases: purified protein
[1] = tested on: CC(=O)SCCNC(=O)CCNC(=O)[C@H](O)C(C)(C)COP(=O)(O)OP(=O)(O)OC[C@H]1O[C@@H](n2cnc3c(N)ncnc32)[C@H](O)[C@@H]1OP(=O)(O)O; conditions: co-substrate succinate 40 mM, 100 mM Tris-HCl pH 7.8, 5 mM MgCl2, 5 mM DTT, 55 °C
[2] = tested on: CC(C)(COP(=O)(O)OP(=O)(O)OC[C@H]1O[C@@H](n2cnc3c(N)ncnc32)[C@H](O)[C@@H]1OP(=O)(O)O)[C@@H](O)C(=O)NCCC(=O)NCCSC(=O)CCC(=O)O; conditions: co-substrate propionate 20 mM, 100 mM Tris-HCl pH 7.8, 5 mM MgCl2, 5 mM DTT, 55 °C
CCC(=O)O = conditions: co-substrate acetyl-CoA 2 mM, 100 mM Tris-HCl pH 7.8, 5 mM MgCl2, 5 mM DTT, 55 °C
[3] = tested on: CCC(=O)SCCNC(=O)CCNC(=O)[C@H](O)C(C)(C)COP(=O)(O)OP(=O)(O)OC[C@H]1O[C@@H](n2cnc3c(N)ncnc32)[C@H](O)[C@@H]1OP(=O)(O)O; conditions: co-substrate acetate 20 mM, 100 mM Tris-HCl pH 7.8, 5 mM MgCl2, 5 mM DTT, 55 °C
O=C(O)CCCO = conditions: co-substrate acetyl-CoA 1 mM, 100 mM Tris-HCl pH 7.8, 5 mM MgCl2, 5 mM DTT, 55 °C

succinyl-CoA:acetate CoA-transferase encoded by the AHF96498 gene (AHF96498 gene product) (Desulfurella acetivorans A63)
Km [1]: 200 ± 40 µM | Vmax [1]: 90 µmol/min/mg | kcat/Km [1]: 534000 M⁻¹ s⁻¹ | Km [2]: 1200 ± 300 µM | kcat/Km [2]: 14000 M⁻¹ s⁻¹ | Km (CCC(=O)O): 3900 ± 800 µM | Vmax (CCC(=O)O): 875 µmol/min/mg | kcat/Km (CCC(=O)O): 223000 M⁻¹ s⁻¹ | Km [3]: 1100 ± 300 µM | Vmax [3]: 669 µmol/min/mg | kcat/Km [3]: 584000 M⁻¹ s⁻¹ | Km (O=C(O)CCCO): 400 ± 100 µM | Vmax (O=C(O)CCCO): 7.7 µmol/min/mg | kcat/Km (O=C(O)CCCO): 24000 M⁻¹ s⁻¹
